Data reported in patent publication US12291578B2, “Anti-matrix metalloproteinase 7 (MMP-7) inhibitory antibody and uses thereof” (Yeda Research and Development Co. Ltd., priority 2019, dated 2025).
“Also recorded” adds a separate entry of the source.

Tests used:
CFPAC-1 cells [1] = assay: Wound healing assay (scratch assay); format: cell-based, human; details: 7 hours post treatment, vs control antibody GST
Method: Wound Healing Assay (Scratch Assay): The migratory behavior of cells was assayed by means of a wound-healing assay using a culture-insert (ibidi GmbH, Am Klopferspitz 19, Martinsried, Germany) according to the manufacturer's instruction. After 24 h the culture-inserts were removed leaving a cell-free gap (“defined as a wound”) of approx. 500 μm. The migration rate into this “wound area” was documented and measured using Carl Zeiss microscope (DeltaVision Microscopy Imaging Systems—GE Healthcare Life Sciences, USA). The migration rate was determined by percentage area covered by cells. Each analysis was performed in triplicates and was repeated two times.
(§1) GSM-192 Fab reduces cell motility in vitro: MMP-7 mediated E-Cadherin cleavage promotes cell migration^19, so it was hypothesized that an effective anti MMP-7 antibody directed to the activated enzyme should be able to impact migration.

MMP-9 = MMP-9 (Homo sapiens, UniProt P14780); assay: ELISA binding, cross-reactivity
Chain of MMP-9 (P14780 94-707, species assumed): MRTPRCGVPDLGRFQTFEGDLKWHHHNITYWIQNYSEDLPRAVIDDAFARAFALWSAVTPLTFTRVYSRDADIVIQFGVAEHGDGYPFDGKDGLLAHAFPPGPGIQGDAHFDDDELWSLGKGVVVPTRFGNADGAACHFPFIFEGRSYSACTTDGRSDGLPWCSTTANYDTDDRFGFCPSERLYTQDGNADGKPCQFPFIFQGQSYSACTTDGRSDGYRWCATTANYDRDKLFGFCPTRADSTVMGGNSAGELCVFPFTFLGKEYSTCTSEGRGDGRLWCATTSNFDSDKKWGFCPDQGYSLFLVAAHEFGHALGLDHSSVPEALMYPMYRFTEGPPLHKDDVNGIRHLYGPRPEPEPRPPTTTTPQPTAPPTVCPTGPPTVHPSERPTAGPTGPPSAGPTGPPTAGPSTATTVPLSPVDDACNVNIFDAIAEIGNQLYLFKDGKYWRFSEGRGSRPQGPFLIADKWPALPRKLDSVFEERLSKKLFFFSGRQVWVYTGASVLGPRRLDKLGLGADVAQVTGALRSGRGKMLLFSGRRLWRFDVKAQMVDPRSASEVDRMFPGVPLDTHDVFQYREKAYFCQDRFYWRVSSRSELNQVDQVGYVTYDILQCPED

MMP-14 = MMP-14 (Homo sapiens, UniProt P50281); assay: ELISA binding, cross-reactivity
[2] = tested on: RIP1-Tag2 mice serum (circulating MMP); assay: Dot blot with RIP1-Tag2 mice serum; format: binding, mouse; details: serum of RIP1-Tag2 mice with late stage insulinomas, 335 times the protein of pure MMP-7 control
Method: (§2) A dot blot was performed by immobilizing 1, 1.5 and 2 μg zymogen and activated MMP-7 recombinant enzyme on nitrocellulose membrane pre wetted with TBST using a vacuum based manifold 96 well dot-blot system (GE 10447900 Minifold dot blot). The blocking was performed for 1 hour at room temperature with 3% BSA in TBST. The membrane was then probed for binding by antibody eluted in the earlier step by incubating overnight. The anti MMP-7 mAb used was at 2 ug/ml concentration in TBST. The membrane after 3 washes in TBST was incubated with goat anti mouse HRP antibody and developed using ECL to determine the selectivity of binding towards catalytic form only.
Serum isolated from RIP1-Tag2 mice with late stage insulinomas were used to determine if anti MMP-7 mAb would be bound and removed by circulating enzyme. […] The total serum protein loaded for this experiment was 335 times the protein concentration used for pure MMP-7 catalytic control.

CFPAC-1 cells [3] = assay: Trans-well migration assay; format: cell-based, human; details: 15 h post treatment, sub-lethal concentrations
Method: Trans-well migration assay: Cells were starved overnight in assay media (IMDM media containing only 1% serum). Cells (1×10^5) were added to the top chambers of 24-well transwell plates (BD Biosciences; 8 μm pore size), and assay media, with or without GSM-192, was added to both chambers. […] The numbers of cells in five fields were counted under 20× magnification, and the mean for each chamber determined.
as §1

MMP-13 = MMP-13 (Homo sapiens, UniProt P45452); assay: ELISA binding, cross-reactivity
[4] = tested on: RIP1-Tag2 insulinoma (PanNET) model; assay: Late stage treatment in RIP1-Tag2 (PanNET) mice; format: in vivo, mouse; details: age 10 to 12 weeks, 5 mg/kg every other day IP
Source text: (§3) RIP1-Tag2: The RIP1Tag2 (RT2) murine PanNET model was developed by the fusion of Rat Insulin II promoter region to the SV40 early region that encodes the large T and small t antigens. Although oncogene expression begins during embryonic development (E8.5), the pancreatic islets initially have a normal anatomical and histological appearance (“normal” stage). Beginning at 4-5 weeks of age, hyperplastic and dysplastic islets begin to appear, rending 50% of all islets by 10 weeks of age. Angiogenic islets appear beginning around 6 weeks of age, and represent 10% of all islets at 10.5 weeks. Angiogenic islets are recognized by their dilated blood vessels and micro-hemorrhages. Tumors form beginning at 9-10 weeks and represent 2-4% of all the islets by 14 weeks. About half of the tumors at end stage evidence either focal or widespread invasion to the surrounding acinar tissue. RIP-Tag2 mice die at approximately 14 weeks of age primarily due to hyperinsulinemia.
The tumor volume was measured using x, y and z dimensions from a caliper scale.

[5] = tested on: RIP1-Tag2 insulinoma (PanNET) model; assay: Early stage treatment in RIP1-Tag2 (PanNET) mice; format: in vivo, mouse; details: 3 mg/kg every day IP; for area covered by CD34+ cells: islets undergoing angiogenesis
Source text: as §3
GSM-192 treatment reduces occurrence of advanced tumor lesions in RIP1-Tag2 (PanNET) mice in early stage treatments: RIP1-Tag2 mice (n=15) in transition stage from hyperplastic to angiogenic stage spanning 6 to 8 weeks of age were treated with GSM-192 and GST control antibody at a concentration of 3 mg/kg every day intra peritoneal (IP). Animals at age 8 weeks post treatment was sacrificed and their pancreas was embedded in paraffin blocks and sectioned. Several sections in different depth in the tissue were made for subsequent histological analysis or immunofluorescence staining. Tumor sizes and staging was done in accordance with RIP1-Tag2 manual. […] As previously observed in in-vitro cell culture, the tissue was tested for differences in cell proliferation rate (with cell division marker Ki-67) and in cell apoptosis rate (with effector apoptotic marker Caspase-3).

[6] = biological target: T1, activated MMP-7 recombinant enzyme (Homo sapiens, UniProt P09237); assay: Dot blot, activated enzyme; format: binding; details: different concentrations of enzyme
T1 sequence (P09237 95-267): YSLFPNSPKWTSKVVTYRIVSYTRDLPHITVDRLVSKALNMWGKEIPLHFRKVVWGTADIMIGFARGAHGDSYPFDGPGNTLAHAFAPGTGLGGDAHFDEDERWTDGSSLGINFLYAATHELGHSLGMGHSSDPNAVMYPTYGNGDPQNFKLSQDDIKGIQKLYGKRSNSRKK
Method: as §2

MMP-7 zymogen = biological target: T2, MMP-7 zymogen (Homo sapiens, UniProt P09237); assay: Dot blot, zymogen; format: binding
T2 sequence (P09237 18-267 limits assumed): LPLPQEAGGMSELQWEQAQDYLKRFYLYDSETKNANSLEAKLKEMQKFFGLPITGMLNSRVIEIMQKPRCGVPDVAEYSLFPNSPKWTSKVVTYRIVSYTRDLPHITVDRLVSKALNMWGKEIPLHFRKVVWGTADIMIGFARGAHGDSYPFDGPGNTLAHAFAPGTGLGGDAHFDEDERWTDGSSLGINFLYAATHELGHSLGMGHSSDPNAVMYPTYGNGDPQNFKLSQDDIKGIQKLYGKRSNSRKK
Method: as §2

[7] = 6 to 8 weeks of age, listed as anti MMP-7 mAb

B1: GSM-192: monoclonal antibody to MMP-7 binding the catalytic domain, not the zymogen; VL SEQ ID NO: 1, VH SEQ ID NO: 2 (antibody, V domains shown)
VH: EVQLQQSGPELVKPGASVKIPCKASGYTFTDYNMDWMKQSHGKSLEWIGHINPNNGGTFYNQKFKDKATFIVDKSSNTAYMELRSLTSEDTAVYFCARGGGLRRGPFAYWGQGTLVTVS
VL: DIVTQSPASLAVSLGQRATISCRASESFDSYGNTFVHWYQQKPGQPPKLLIYLVSNLESGVPAGFRGRGSRTDFTLTIDPVEADDAATYYCQQNNEDPYTFGGGTKLEIKRA
modifications: GSM-192 Heavy Chain Sequence; GSM-192 Light Chain Sequence
- cell migration / rate of wound closure (CFPAC-1 cells [1]): significant reduction in rate of wound closure; also recorded: slowed down cell migration
- crossreactivity to MMP-9 (MMP-9): did not show crossreactivity
- crossreactivity to MMP-14 (MMP-14): did not show crossreactivity
- binding to total serum proteins ([2]; listed as Anti MMP-7mAb): does not bind
- binding to total serum proteins ([2]; listed as anti MMP-7 mAb): did not show any binding
- cells migrating across the transwell membrane (CFPAC-1 cells [3]): almost by half; also recorded: reduces cells migrating across the transwell membrane significantly
- crossreactivity to MMP-13 (MMP-13): did not show crossreactivity
- tumor volume relative to control group [4]: less than half
- number of Caspase-3 positive cells (apoptosis) ([5]; 6 to 8 weeks of age): No significant change
- number of Ki-67 positive cells (cell proliferation) ([5]; 6 to 8 weeks of age): No significant change
- number of Caspase-3 positive cells (apoptosis) [5, 7]: does not show significant difference
- number of Ki-67 positive cells (cell proliferation) [5, 7]: does not show significant difference
- number of angiogenic islets / fraction of islets advancing to post angiogenic lesions ([5]; 6 to 8 weeks of age, vs GST control antibody): reduced almost by half; also recorded: half of the total seen in control mice
- area covered by CD34+ cells [5]: less abundant
- area covered by CD34+ cells ([5]; listed as anti MMP-7 mAb): reduces the area covered by CD34+ cells
- binding to activated form of MMP-7 [6]: bound to the catalytic domain
- binding to activated form of MMP-7 ([6]; listed as anti MMP-7 Ab): selective binding
- binding to zymogen form of MMP-7 (MMP-7 zymogen): not the zymogen form; also recorded: did not bind
